Target: recombinant TLR4 protein
Test: ELISA: TLR4 coated on the plate, MD2 titrated from 133.3 to 0.065 nM, anti-MD2 detection, nonlinear regression

## recombinant MD2 protein (ligand)
  Kd: 18.4 nM
